For assay [1], the target named is T1, human GIP receptor (human), P48546.
T1 chain: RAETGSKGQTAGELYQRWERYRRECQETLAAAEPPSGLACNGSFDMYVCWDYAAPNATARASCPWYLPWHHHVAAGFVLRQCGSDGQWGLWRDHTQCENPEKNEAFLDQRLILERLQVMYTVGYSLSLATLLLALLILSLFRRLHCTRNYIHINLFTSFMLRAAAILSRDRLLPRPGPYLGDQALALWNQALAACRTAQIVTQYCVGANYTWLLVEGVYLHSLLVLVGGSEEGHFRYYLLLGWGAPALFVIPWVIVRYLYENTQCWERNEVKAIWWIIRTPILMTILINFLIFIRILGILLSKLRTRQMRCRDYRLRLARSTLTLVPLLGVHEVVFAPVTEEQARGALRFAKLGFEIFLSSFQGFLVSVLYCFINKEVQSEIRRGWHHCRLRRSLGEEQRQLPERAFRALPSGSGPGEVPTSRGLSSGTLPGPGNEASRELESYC
The assay can be described thus: cell-based or functional assay.

The target of assay [2] is T2, human GLP-1 receptor (human), P43220.
T2 chain: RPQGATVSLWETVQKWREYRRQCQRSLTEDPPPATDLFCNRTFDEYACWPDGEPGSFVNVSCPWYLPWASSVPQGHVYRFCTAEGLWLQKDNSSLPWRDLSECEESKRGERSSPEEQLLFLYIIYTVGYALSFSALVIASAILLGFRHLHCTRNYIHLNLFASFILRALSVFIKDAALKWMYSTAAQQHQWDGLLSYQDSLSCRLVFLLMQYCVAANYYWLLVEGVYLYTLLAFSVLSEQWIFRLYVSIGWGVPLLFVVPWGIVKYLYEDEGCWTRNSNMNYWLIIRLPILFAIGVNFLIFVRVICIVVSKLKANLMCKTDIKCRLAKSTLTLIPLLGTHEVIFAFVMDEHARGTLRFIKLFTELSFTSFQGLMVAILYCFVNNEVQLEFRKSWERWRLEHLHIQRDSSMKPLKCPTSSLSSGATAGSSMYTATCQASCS
The assay can be described thus: cell-based or functional assay.

Assay [3] deals with human glucagon receptor (human), P47871. Kind of assay: cell-based or functional assay.
human glucagon receptor (human), P47871, sequence (P47871 26-477): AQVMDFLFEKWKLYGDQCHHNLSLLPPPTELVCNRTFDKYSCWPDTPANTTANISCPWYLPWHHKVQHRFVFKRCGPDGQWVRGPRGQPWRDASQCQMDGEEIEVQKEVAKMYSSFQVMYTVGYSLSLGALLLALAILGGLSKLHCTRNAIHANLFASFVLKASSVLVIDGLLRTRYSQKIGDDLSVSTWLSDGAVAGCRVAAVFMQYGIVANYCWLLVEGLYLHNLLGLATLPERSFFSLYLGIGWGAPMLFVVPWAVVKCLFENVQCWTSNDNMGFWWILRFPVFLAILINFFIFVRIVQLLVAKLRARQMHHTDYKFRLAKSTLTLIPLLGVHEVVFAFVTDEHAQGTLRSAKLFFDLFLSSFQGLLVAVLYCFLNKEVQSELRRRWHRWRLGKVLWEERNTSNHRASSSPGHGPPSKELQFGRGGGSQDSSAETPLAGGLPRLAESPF
In assay [4] the target is T1, human GIP receptor (human), P48546. The assay can be described thus: radioligand competition SPA, HEK293 membranes.
The target of assay [5] is T2, human GLP-1 receptor (human), P43220. Kind of assay: radioligand competition SPA, HEK293 membranes.
Assay [6] concerns the target human glucagon receptor (human), P47871. Kind of assay: radioligand competition SPA, HEK293 membranes.

*1 amine or outer side, *2 acyl side, *3 side chain or, on linkers, in order; H or OH if unused. Where no end group is shown, it is not given here. Side-chain parts run from the residue outwards. [ ]: non-standard residue; d: D form. The star is where a group is joined. C20 diacid = O=C(O)CCCCCCCCCCCCCCCCCCC(=O)*; γGlu = O=C(O)[C@H](CCC(=O)[*:2])N[*:1]; αMeL = CC(C)C[C@](C)(N)C(=O)O; αMeK = C[C@](N)(CCCCN)C(=O)O; AEEA = NCCOCCOCC(=O)O; Aib = CC(C)(N)C(=O)O

B1: Example 8 (peptide)
peptide: Y[Aib]QGTFTSDYSILLDKK([AEEA-AEEA-γGlu-C20 diacid])AQ[αMeK]AFIEYLLEGGPSSGAPPPS-NH2
modifications: N-terminus assumed
SMILES: CC[C@H](C)[C@H](NC(=O)[C@H](Cc1ccccc1)NC(=O)[C@H](C)NC(=O)[C@](C)(CCCCN)NC(=O)[C@H](CCC(N)=O)NC(=O)[C@H](C)NC(=O)[C@H](CCCCNC(=O)COCCOCCNC(=O)COCCOCCNC(=O)CC[C@H](NC(=O)CCCCCCCCCCCCCCCCCCC(=O)O)C(=O)O)NC(=O)[C@H](CCCCN)NC(=O)[C@H](CC(=O)O)NC(=O)[C@H](CC(C)C)NC(=O)[C@H](CC(C)C)NC(=O)[C@@H](NC(=O)[C@H](CO)NC(=O)[C@H](Cc1ccc(O)cc1)NC(=O)[C@H](CC(=O)O)NC(=O)[C@H](CO)NC(=O)[C@@H](NC(=O)[C@H](Cc1ccccc1)NC(=O)[C@@H](NC(=O)CNC(=O)[C@H](CCC(N)=O)NC(=O)C(C)(C)NC(=O)[C@@H](N)Cc1ccc(O)cc1)[C@@H](C)O)[C@@H](C)O)[C@@H](C)CC)C(=O)N[C@@H](CCC(=O)O)C(=O)N[C@@H](Cc1ccc(O)cc1)C(=O)N[C@@H](CC(C)C)C(=O)N[C@@H](CC(C)C)C(=O)N[C@@H](CCC(=O)O)C(=O)NCC(=O)NCC(=O)N1CCC[C@H]1C(=O)N[C@@H](CO)C(=O)N[C@@H](CO)C(=O)NCC(=O)N[C@@H](C)C(=O)N1CCC[C@H]1C(=O)N1CCC[C@H]1C(=O)N1CCC[C@H]1C(=O)N[C@@H](CO)C(N)=O
Broadly, the Ki is a dissociation constant, usually derived from enzyme kinetics or from competition with a known ligand. Low values mean tighter binding, high ones weaker binding. On to B1, for which the cAMP EC50 (0.1% casein) in assay [1] was determined as 0.114 nM; in assay [2], 0.117 nM; in assay [3], 0.12 nM. For the same molecule, the cAMP EC50 (FBS and BSA present) in assay [1] amounted to 2.23 nM; in assay [2], 9.39 nM; in assay [3], 6.24 nM. Further, the inhibitory constant (Ki) in assay [4] was 0.0958 nM; in assay [5], 29.4 nM; in assay [6], 30.4 nM.

B2: Example 1 (peptide)
peptide: H-Y[Aib]QGTFTSDYSI[αMeL]LDKK([AEEA-AEEA-γGlu-C20 diacid])AQ[αMeK]AFIEYLLA[Aib]GPSSGAPPPS-NH2
SMILES: CC[C@H](C)[C@H](NC(=O)[C@H](Cc1ccccc1)NC(=O)[C@H](C)NC(=O)[C@](C)(CCCCN)NC(=O)[C@H](CCC(N)=O)NC(=O)[C@H](C)NC(=O)[C@H](CCCCNC(=O)COCCOCCNC(=O)COCCOCCNC(=O)CC[C@H](NC(=O)CCCCCCCCCCCCCCCCCCC(=O)O)C(=O)O)NC(=O)[C@H](CCCCN)NC(=O)[C@H](CC(=O)O)NC(=O)[C@H](CC(C)C)NC(=O)[C@](C)(CC(C)C)NC(=O)[C@@H](NC(=O)[C@H](CO)NC(=O)[C@H](Cc1ccc(O)cc1)NC(=O)[C@H](CC(=O)O)NC(=O)[C@H](CO)NC(=O)[C@@H](NC(=O)[C@H](Cc1ccccc1)NC(=O)[C@@H](NC(=O)CNC(=O)[C@H](CCC(N)=O)NC(=O)C(C)(C)NC(=O)[C@@H](N)Cc1ccc(O)cc1)[C@@H](C)O)[C@@H](C)O)[C@@H](C)CC)C(=O)N[C@@H](CCC(=O)O)C(=O)N[C@@H](Cc1ccc(O)cc1)C(=O)N[C@@H](CC(C)C)C(=O)N[C@@H](CC(C)C)C(=O)N[C@@H](C)C(=O)NC(C)(C)C(=O)NCC(=O)N1CCC[C@H]1C(=O)N[C@@H](CO)C(=O)N[C@@H](CO)C(=O)NCC(=O)N[C@@H](C)C(=O)N1CCC[C@H]1C(=O)N1CCC[C@H]1C(=O)N1CCC[C@H]1C(=O)N[C@@H](CO)C(N)=O
Turning to B2, the cAMP EC50 (0.1% casein) came to 0.0523 nM in assay [1], 0.153 nM in assay [2] and 0.114 nM in assay [3]. Moreover, the values for the cAMP EC50 (FBS and BSA present) in assay [1], in assay [2] and in assay [3] were 0.914 nM, 7.49 nM and 2.54 nM, respectively. Also, the Ki was 0.0469 nM in assay [4], 2.64 nM in assay [5] and 8.41 nM in assay [6].

B3: Example 10 (peptide)
peptide: Y[Aib]QGTFTSDYSI[αMeL]LDKK([AEEA-γGlu-C20 diacid])AQHAFIEYLLEGGPSSGAPPPS-NH2
Take B3: the cAMP EC50 (0.1% casein) in assay [1] amounted to 0.0928 nM; in assay [2] it was 0.143 nM; in assay [3], 0.123 nM. Further, the cAMP EC50 (FBS and BSA present) in assay [1] turned out to be 4.3 nM; in assay [2], 19.3 nM; in assay [3], 8.42 nM. Also, the Ki in assay [4] worked out at 0.118 nM; in assay [5], 12 nM; in assay [6], 7.37 nM.

B4: Example 9 (peptide)
peptide: Y[Aib]QGTFTSDYSI[αMeL]LDKK([γGlu-γGlu-C20 diacid])AQHAFIEYLLEGGPSSGAPPPS-NH2
modifications: N-terminus assumed
SMILES: CC[C@H](C)[C@H](NC(=O)[C@H](Cc1ccccc1)NC(=O)[C@H](C)NC(=O)[C@H](Cc1c[nH]cn1)NC(=O)[C@H](CCC(N)=O)NC(=O)[C@H](C)NC(=O)[C@H](CCCCNC(=O)CC[C@H](NC(=O)CC[C@H](NC(=O)CCCCCCCCCCCCCCCCCCC(=O)O)C(=O)O)C(=O)O)NC(=O)[C@H](CCCCN)NC(=O)[C@H](CC(=O)O)NC(=O)[C@H](CC(C)C)NC(=O)[C@](C)(CC(C)C)NC(=O)[C@@H](NC(=O)[C@H](CO)NC(=O)[C@H](Cc1ccc(O)cc1)NC(=O)[C@H](CC(=O)O)NC(=O)[C@H](CO)NC(=O)[C@@H](NC(=O)[C@H](Cc1ccccc1)NC(=O)[C@@H](NC(=O)CNC(=O)[C@H](CCC(N)=O)NC(=O)C(C)(C)NC(=O)[C@@H](N)Cc1ccc(O)cc1)[C@@H](C)O)[C@@H](C)O)[C@@H](C)CC)C(=O)N[C@@H](CCC(=O)O)C(=O)N[C@@H](Cc1ccc(O)cc1)C(=O)N[C@@H](CC(C)C)C(=O)N[C@@H](CC(C)C)C(=O)N[C@@H](CCC(=O)O)C(=O)NCC(=O)NCC(=O)N1CCC[C@H]1C(=O)N[C@@H](CO)C(=O)N[C@@H](CO)C(=O)NCC(=O)N[C@@H](C)C(=O)N1CCC[C@H]1C(=O)N1CCC[C@H]1C(=O)N1CCC[C@H]1C(=O)N[C@@H](CO)C(N)=O
In the case of B4, the cAMP EC50 (0.1% casein) in assay [1] came out at 0.0522 nM; in assay [2], 0.0931 nM; in assay [3] it was 0.139 nM. Also, the cAMP EC50 (FBS and BSA present) was found to be 4.17 nM in assay [1], 9.76 nM in assay [2] and 6.32 nM in assay [3]. Also, the Ki in assay [4] worked out at 0.126 nM; in assay [5], 11.5 nM; in assay [6] it was 8.27 nM.

These data come from patent US20250313605A1.
